Results: the supplement of paper PMC5998384

Experiments:
HeLa Kyoto [1] = assay: solubility change mitosis vs G1/S (difference of NP-40 vs SDS log2 ratios) (log2 ratio difference); higher = more soluble in mitosis
HeLa Kyoto [2] = assay: melting temperature (median over replicates), in situ; higher = more thermally stable
HeLa Kyoto [3] = assay: solubility in G1/S (NP-40 vs SDS abundance) (log2 ratio); higher = more soluble; conditions: cell cycle stage: G1/S
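Throughout, for melting temperature (median over replicates), in situ: HeLa Kyoto cells synchronized by double thymidine or nocodazole block, proteins quantified by TMT10plex mass spectrometry, three independent biological replicates.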
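Throughout, for solubility change mitosis vs G1/S (difference of NP-40 vs SDS log2 ratios): synchronized HeLa Kyoto cells (double thymidine block for G1/S, nocodazole release for mitosis), protein amounts in NP-40 versus SDS lysates quantified by mass spectrometry, three biological replicates.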
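Throughout, for solubility in G1/S (NP-40 vs SDS abundance): HeLa Kyoto cells arrested at G1/S by double thymidine block, proteins quantified by TMT10plex mass spectrometry in mild NP-40 versus SDS extracts, three biological replicates.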

Sequence	solubility change mitosis (log2) (HeLa Kyoto [1])	melting temperature (HeLa Kyoto [2]; cell cycle stage: G1/S) [°C]	melting temperature (HeLa Kyoto [2]; cell cycle stage: mitosis) [°C]	solubility in G1/S (log2) (HeLa Kyoto [3])
MSAHSMLCERIAIAKELIKRAESLSRSRKGGIEGGAKLCSKLKAELKFLQKVEAGKVAIKESHLQSTNLTHLRAIVESAENLEEVVSVLHVFGYTDTLGEKQTLVVDVVANGGHTWVKAIGRKAEALHNIWLGRGQYGDKSIIEQAEDFLQASHQQPVQYSNPHIIFAFYNSVSSPMAEKLKEMGISVRGDIVAVNALLDHPEELQPSESESDDEGPELLQVTRVDRENILASVAFPTEIKVDVCKRVNLDITTLITYVSALSYGGCHFIFKEKVLTEQAEQERKEQVLPQLEAFMKDKELFACESAVKDFQSILDTLGGPGERERATVLIKRINVVPDQPSERALRLVASSKINSRSLTIFGTGDTLKAITMTANSGFVRAANNQGVKFSVFIHQPRALTESKEALATPLPKDYTTDSEH [C7ORF25]	0.0164	50.1	50	0.0643
MSEAMDQPAGGPGNPRPGEGDDGSMEPGTCQELLHRLRELEAENSALAQANENQRETYERCLDEVANHVVQALLNQKDLREECIKLKKRVFDLERQNQMLSALFQQKLQLTTGSLPQIPLTPLQPPSEPPASPSLSSTEGPAAPLPLGHCAGQREVCWEQQLRPGGPGPPAAPPPALDALSPFLRKKAQILEVLRALEETDPLLLCSPATPWRPPGQGPGSPEPINGELCGPPQPEPSPWAPCLLLGPGNLGGLLHWERLLGGLGGEEDTGRPWGPSRGPPQAQGTSSGPNCAPGSSSSSSSDEAGDPNEAPSPDTLLGALARRQLNLGQLLEDTESYLQAFLAGAAGPLNGDHPGPGQSSSPDQAPPQLSKSKGLPKSAWGGGTPEAHRPGFGATSEGQGPLPFLSMFMGAGDAPLGSRPGHPHSSSQVKSKLQIGPPSPGEAQGPLLPSPARGLKFLKLPPTSEKSPSPGGPQLSPQLPRNSRIPCRNSGSDGSPSPLLARRGLGGGELSPEGAQGLPTSPSPCYTTPDSTQLRPPQSALSTTLSPGPVVSPCYENILDLSRSTFRGPSPEPPPSPLQVPTYPQLTLEVPQAPEVLRSPGVPPSPCLPESYPYGSPQEKSLDKAGSESPHPGRRTPGNSSKKPSQGSGRRPGDPGSTPLRDRLAALGKLKTGPEGALGSEKNGVPARPGTEKTRGPGKSGESAGDMVPSIHRPLEQLEAKGGIRGAVALGTNSLKQQEPGLMGDPGARVYSSHSMGARVDLEPVSPRSCLTKVELAKSRLAGALCPQVPRTPAKVPTSAPSLGKPNKSPHSSPTKLPSKSPTKVVPRPGAPLVTKESPKPDKGKGPPWADCGSTTAQSTPLVPGPTDPSQGPEGLAPHSAIEEKVMKGIEENVLRLQGQERAPGAEVKHRNTSSIASWFGLKKSKLPALNRRTEATKNKEGAGGGSPLRREVKMEARKLEAESLNISKLMAKAEDLRRALEEEKAYLSSRARPRPGGPAPGPNTGLGQVQGQLAGMYQGADTFMQQLLNRVDGKELPSKSWREPKPEYGDFQPVSSDPKSPWPACGPRNGLVGPLQGCGKPPGKPSSEPGRREEMPSEDSLAEPVPTSHFTACGSLTRTLDSGIGTFPPPDHGSSGTPSKNLPKTKPPRLDPPPGVPPARPPPLTKVPRRAHTLEREVPGIEELLVSGRHPSMPAFPALLPAAPGHRGHETCPDDPCEDPGPTPPVQLAKNWTFPNTRAAGSSSDPLMCPPRQLEGLPRTPMALPVDRKRSQEPSRPSPTPQGPPFGGSRTPSTSDMAEEGRVASGGPPGLETSESLSDSLYDSLSSCGSQG [NCKAP5L]	-0.128	–	50.4	0.0838
MSEVSCKKRDDYLEWPEYFMAVAFLSAQRSKDPNSQVGACIVNSENKIVGIGYNGMPNGCSDDVLPWRRTAENKLDTKYPYVCHAELNAIMNKNSTDVKGCSMYVALFPCNECAKLIIQAGIKEVIFMSDKYHDSDEATAARLLFNMAGVTFRKFIPKCSKIVIDFDSINSRPSQKLQ [DCTD]	0.0667	59.8	58.5	0.419
MSGIKRTIKETDPDYEDVSVALPNKRHKAIENSARDAAVQKIETIIKEQFALEMKNKEHEIEVIDQRLIEARRMMDKLRACIVANYYASAGLLKVSEGSKTCDTMVFNHPAIKKFLESPSRSSSPANQRAETPSANHSESDSLSQHNDFLSDKDNNSNMDIEERLSNNMEQRPSRNTGRDTSRITGSHKTEQRNADLTDETSRLFVKKTIVVGNVSKYIPPDKREENDQSTHKWMVYVRGSRREPSINHFVKKVWFFLHPSYKPNDLVEVREPPFHLTRRGWGEFPVRVQVHFKDSQNKRIDIIHNLKLDRTYTGLQTLGAETVVDVELHRHSLGEDCIYPQSSESDISDAPPSLPLTIPAPVKASSPIKQSHEPVPDTSVEKGFPASTEAERHTPFYALPSSLERTPTKMTTSQKVTFCSHGNSAFQPIASSCKIVPQSQVPNPESPGKSFQPITMSCKIVSGSPISTPSPSPLPRTPTSTPVHVKQGTAGSVINNPYVIMDKQPGQVIGATTPSTGSPTNKISTASQVSQGTGSPVPKIHGSSFVTSTVKQEDSLFASMPPLCPIGSHPKVQSPKPITGGLGAFTKVIIKQEPGEAPHVPATGAASQSPLPQYVTVKGGHMIAVSPQKQVITPGEGIAQSAKVQPSKVVGVPVGSALPSTVKQAVAISGGQILVAKASSSVSKAVGPKQVVTQGVAKAIVSGGGGTIVAQPVQTLTKAQVTAAGPQKSGSQGSVMATLQLPATNLANLANLPPGTKLYLTTNSKNPSGKGKLLLIPQGAILRATNNANLQSGSAASGGSGAGGGGGGGGGGGSGSGGGGSTGGGGGTAGGGTQSTAGPGGISQHLTYTSYILKQTPQGTFLVGQPSPQTSGKQLTTGSVVQGTLGVSTSSAQGQQTLKVISGQKTTLFTQAAHGGQASLMKISDSTLKTVPATSQLSKPGTTMLRVAGGVITTATSPAVALSANGPAQQSEGMAPVSSSTVSSVTKTSGQQQVCVSQATVGTCKAATPTVVSATSLVPTPNPISGKATVSGLLKIHSSQSSPQQAVLTIPSQLKPLSVNTSGGVQTILMPVNKVVQSFSTSKPPAILPVAAPTPVVPSSAPAAVAKVKTEPETPGPSCLSQEGQTAVKTEESSELGNYVIKIDHLETIQQLLTAVVKKIPLITAKSEDASCFSAKSVEQYYGWNIGKRRAAEWQRAMTMRKVLQEILEKNPRFHHLTPLKTKHIAHWCRCHGYTPPDPESLRNDGDSIEDVLTQIDSEPECPSSFSSADNLCRKLEDLQQFQKREPENEEEVDILSLSEPVKINIKKEQEEKQEEVKFYLPPTPGSEFIGDVTQKIGITLQPVALHRNVYASVVEDMILKATEQLVNDILRQALAVGYQTASHNRIPKEITVSNIHQAICNIPFLDFLTNKHMGILNEDQ [YEATS2]	0.161	51.4	49.7	-0.495
MSGSLGRAAAALLRWGRGAGGGGLWGPGVRAAGSGAGGGGSAEQLDALVKKDKVVVFLKGTPEQPQCGFSNAVVQILRLHGVRDYAAYNVLDDPELRQGIKDYSNWPTIPQVYLNGEFVGGCDILLQMHQNGDLVEELKKLGIHSALLDEKKDQDSK [GLRX5]	-0.0285	53.9	53	-0.00395
